# The RNAGym collection of RNA variant scans (doi:10.7554/elife.90254)
# B1: OR4K15 (parent)
# chain: GUUAACGGUCAUAGGCCAUGGAAACUAGGAGCACCAUUUCGCUGCCAGUGAAGAAAUGAACAAAGAAAAUCUGGGCCAGGCAGGCAUCAAAAGAAAUAGUCUUGCGCUCAACCAGAAAGUCUGUAAUCAUUUUAAGGGUA
# Variants of: B1
# Test: self-cleavage, relative activity (ratio to wild type); higher = more cleavage; in vitro, sequencing; the parent is a self-cleaving ribozyme
row,Variant,self-cleavage
1,A11G U139C,2.37
2,U12A A90G,0.57
3,A13G U97C,0.78
4,A11U U49C,1.38
5,A11G A66G,0.88
6,A11G A66U,1.45
7,A13G A47G,0.13
8,U12A A36G,1.05
9,U12A A36C,1.82
10,A13G G80A,0.43
11,A13G G80C,0.19
12,A11U A56G,1.1
13,A13G C105A,0.15
14,A11G A94G,0.95
15,A11G A94U,1.2
16,A11U G75C,0.16
17,A11U A116C,0.23
18,A11U A116G,1
19,A13G G53A,1.11
20,U12A U122C,1.26
21,A11U A23G,0.87
22,A11G U108A,0.03
23,U12A A82U,0.3
24,U12C A114G,0.19

row,Variant,self-cleavage
1,U12C A114U,0.14
2,A13G U39C,0.92
3,A13G U39G,1.52
4,U12C U37G,1.92
5,A13U A82G,0.84
6,U12C A62G,1.18
7,A11G U130C,0.53
8,A13U A114U,0.07
9,A13U A114G,0.09
10,U12A A110U,1.63
11,U12A A110C,0.34
12,A13G U122A,0.97
13,A13G U122C,0.76
14,A13U A89G,1.51
15,A11U U57C,0.73
16,A11U A82G,0.63
17,U12A A67G,1.56
18,A13U G79A,0.19
19,A13G A90U,0.25
20,A11G U97C,1.42
21,A11U G58A,0.75
22,U12C G99A,0.97
23,U12C A117G,1.33
24,A13G A36G,0.49

row,Variant,self-cleavage
1,A13G A118G,0.96
2,A13G A118U,0.59
3,A11G A59U,0.98
4,A11U A66G,2.37
5,U12C A13U,0.95
6,U12C A13G,1.16
7,U12C A82U,0.24
8,A11U,0.87
9,U12C U139C,1.41
10,U12C G28A,1.29
11,A13U A36G,0.89
12,A13G U132C,0.41
13,U12C A116G,0.73
14,U12A A92G,1.37
15,A11U U97C,0.56
16,U12C A91G,0.8
17,A13G C32U,1.2
18,U12C A60G,1.34
19,A11G A135U,0.99
20,A11G A135G,1.41
21,U12A A13G,1.28
22,A11G C88U,1.54
23,A11U C88A,1.99
24,U12A A89G,1.57

row,Variant,self-cleavage
1,A13G U87C,1.5
2,U12C A55G,1.34
3,U12C A54U,1.51
4,U12C A54G,1.22
5,U12C U87A,0.96
6,U12C A125G,0.5
7,A13G A23U,1.32
8,A11G A110G,0.12
9,A13G A62G,1.25
10,U12C A126G,0.55
11,A11G A118U,0.2
12,A13G A114G,0.31
13,A13U A68C,1.86
14,A13U A55G,0.85
15,A13G G136A,0.95
16,A13U A52U,1.26
17,A13U A52G,1.18
18,U12G A60G,1.59
19,A13G G15U,1.33
20,A11G A82U,0.2
21,A13G A24G,1.05
22,A11G U49C,0.39
23,U12C C42U,1.16
24,A11U A140U,1.3

row,Variant,self-cleavage
1,A11G U38A,0.86
2,A11G U38C,0.65
3,U12A A60C,1.18
4,U12A A60G,1.36
5,A11G G137A,0.53
6,A13G U57A,1.24
7,A13G U57C,1.18
8,A13G C17U,1.46
9,U12C U103C,1.41
10,A11U U133C,1.36
11,U12C U38A,0.89
12,A11G U127A,1.17
13,U12C,1.01
14,U12G,1.33
15,U12A,1.19
16,A13G U70C,0.87
17,U12C A90U,0.94
18,A11U A63G,0.86
19,A11G G106A,0.06
20,A11G A92C,0.7
21,A13U U43C,1.24
22,A13U A47G,0.93
23,A11U A30G,1.23
24,A13G U108A,0.12

row,Variant,self-cleavage
1,A13G U108C,0.05
2,A13G U108G,0
3,A13G A98U,1.29
4,A13G U38A,0.78
5,U12C A22U,0.66
6,A11U A96G,1.31
7,A13U A90U,1.8
8,A13G A54G,0.81
9,A13G A54U,0.74
10,A11G A126U,1.17
11,A13G A116U,0.41
12,U12C A64G,0.41
13,A11G A90U,1.69
14,A11G A90G,1.04
15,U12C U122C,1.05
16,A13U A63G,1.3
17,A13U A63U,1.13
18,A13U A56G,1.44
19,A11U C61A,1.92
20,A13U A125U,1.71
21,A13G U133C,1.84
22,A13U A66U,1.15
23,A13G A89C,0
24,A13G A89G,1.31

row,Variant,self-cleavage
1,A11U A51C,1.16
2,A11U A51U,0.87
3,A11G U72A,0.38
4,U12C A89U,1.82
5,U12C A89G,1.35
6,A13G U72A,0.23
7,U12C A52G,0.83
8,U12A A91U,1.64
9,A11G U39C,0.96
10,A11G C101U,0.38
11,A13G A110G,0.13
12,U12A A111G,0.08
13,U12C U57C,1.27
14,A11G C113G,0.04
15,A13U A129G,1.57
16,A13G G137U,1.06
17,A11U A118G,0.59
18,A11U A118U,0.51
19,A13G A82G,0.47
20,A11U A110U,1.19
21,U12C A36G,1.44
22,A11G C121A,1.62
23,A13U A91U,1.34
24,U12A A59G,1.26

row,Variant,self-cleavage
1,U12A U38G,1.9
2,A13C A23G,1.36
3,A11G A78U,0.26
4,A11G A78G,0.54
5,U12A A30U,1.11
6,A11G U131C,0.79
7,A11G A60U,1.02
8,U12G A33G,1.04
9,A11U U72A,0.53
10,A11U U72C,0.35
11,U12C A96G,1.02
12,U12A A52G,1.14
13,U12C A18C,0.58
14,A13G U139A,1.51
15,A13G U139C,1.13
16,A13U A18U,0.56
17,U12C A78U,0.34
18,A11U G29A,0.94
19,A13U A98U,2.18
20,A11G A86G,0.76
21,A11G A86U,1.82
22,A13G A92G,1.22
23,U12A U43C,0.49
24,U12A U43A,1.63

row,Variant,self-cleavage
1,A11U A18G,1.38
2,U12C A59G,0.86
3,A13U A116U,0.25
4,A13G C34G,0.83
5,U12A A56G,1.58
6,U12C A51U,1.38
7,A11G U122C,1
8,A11U A114U,0.05
9,A11U A114G,0.61
10,A11G U70A,0.92
11,A11G U70C,0.76
12,U12C U100A,0.63
13,A13G A59G,0.59
14,A13C U127C,0.65
15,U12C G44A,2.15
16,A13G U100C,1.34
17,A11U A86G,1.35
18,A11G A111G,0.04
19,U12C A94G,1.34
20,U12C U49G,0.74
21,U12C U49C,0.44
22,A11U U108G,0.08
23,A11G A114G,0.46
24,A11U U122C,0.19

row,Variant,self-cleavage
1,A11G A129C,0.66
2,A11G C17A,0.61
3,A13G A135G,0.79
4,A13U A96G,1.14
5,U12C U70C,1.25
6,A11U A91G,0.78
7,A11G G84U,0.53
8,A13G A60G,1.33
9,A11G U12A,1.21
10,A13G U124C,0.57
11,U12C U97C,0.65
12,A11U U127C,1.06
13,A13U U39C,1.04
14,A11U A54U,2.18
15,U12C A118U,0.22
16,A13G G41A,0.97
17,A13G G41C,1.02
18,A13G G41U,1.28
19,A11G U103C,0.95
20,A11G G93A,2.04
21,A11U U124C,1.14
22,A11U A60G,1.16
23,A11U U100A,0.62
24,A13C A95G,1.32

row,Variant,self-cleavage
1,A13G U102C,1.18
2,A13U A86G,1.62
3,A11G U102C,1.41
4,A11U A55G,0.82
5,A13U U57C,0.64
6,A11U U39A,1.34
7,A11U U39C,1.11
8,U12C A69G,1.68
9,U12C C105U,0.23
10,A13C A116G,0.96
11,A13G C71U,0.46
12,A11G A68C,0.39
13,A11G A68U,1.23
14,A11G A68G,1.13
15,A11G A91G,0.73
16,A11G A91U,1.22
17,U12C A47G,1.3
18,U12C U102C,1.22
19,A11U A92G,1
20,A11G U124C,0.34
21,A11G U124A,0.66
22,A13G C77U,1.1
23,U12A A63U,1.88
24,U12A A54U,1.28

row,Variant,self-cleavage
1,U12C C45U,1.85
2,A11G C71A,0.71
3,A11G A96C,0.82
4,A11G A134G,0.88
5,A11G A134C,0.5
6,A11G G31C,1.04
7,A11U A52U,1.54
8,A11U A52G,1.25
9,U12C A23G,0.76
10,A13U A94G,0.55
11,A13U A64G,1.04
12,U12G A82U,0.3
13,A13G U131C,1.01
14,U12A U70A,0.56
15,U12A A51G,0.95
16,U12A A51U,1.05
17,U12A A96U,1.67
18,U12A A96G,1.43
19,A11U U19A,1.38
20,A11U U19C,1.85
21,A13U A60G,0.32
22,A13G A63G,0.97
23,A13G A63U,0.77
24,A11G C61G,1

row,Variant,self-cleavage
1,A13G A78U,0.6
2,A11U A89U,1.59
3,A11U A89G,1.21
4,A11U U87A,1.75
5,A13G A125U,0.88
6,A13C G79U,0.17
7,U12C U72C,0.18
8,A11G U87A,1.05
9,A11G G41A,0.82
10,A11G G41U,1.91
11,A13G A94G,0.6
12,A13G A94U,1.4
13,A13G A86U,1.21
14,A13G C40U,1.03
15,A11G A116C,0.1
16,A11G C112U,0.05
17,A11G C112A,0.02
18,U12C G84C,0.31
19,A11G U26C,1.27
20,A11U U132C,0.89
21,A13G A96U,1.14
22,U12C U132A,0.67
23,U12C U132C,0.2
24,A11U A117G,1.41

row,Variant,self-cleavage
1,A13U A62U,1.05
2,A13G A51G,0.85
3,A11U A90G,0.51
4,U12G U100C,1.76
5,A11G C107G,0.05
6,U12A A66G,0.9
7,A11U A78C,0.22
8,U12A U49C,1.59
9,U12A U49A,0.48
10,U12C U130C,0.95
11,U12A U102A,1.08
12,A13G A68G,0.65
13,A11G A125G,0.38
14,A11G U120C,0.35
15,A11U A111U,0.06
16,A11U A111G,0.06
17,U12G A22G,1.13
18,A11G A140G,0.96
19,A11G A140U,1.31
20,A13G A126G,1.04
21,A13U A78G,0.2
22,U12G U102C,1.11
